Measurements: the DeepSol protein solubility set

assay: soluble on expression in E. coli; label from the status in PepcDB or PDB records

Sequence	soluble on expression in E. coli
MSLIGFLSDRQGFEKQYHDIDLSSFGIREGISEIIASTGFEHPNAAPIGIVMKGERPFVRLFKGSHTWENVLKEKCLASNVVYDPILFVRSTFSDLVPSEFEYVDAGEFKFPVLKEAIAWVVFECINLRNTDQSLVADLVPLNAGFNERNIKELPVPNRGFNAVLEATVHATRYQLTGEEKYLELIRHYESLASKCGGDAEKKAMKLIYEALGLEGHHHHHH	soluble
MAHHHHHHMPPKGQRSLNIAQPLSSSRAQSANAILRSAASAMATSGPAASKSSPRTSCFPRAFMSTGNARNEMEAYYEQLLSQDRVDGVDAFGKNGIHLLCKGLGIKPESFEMYTLIWKMGVTRGCCIPRADWLKTIYTYKIEQPMDLKLVLVEWVKESRGDSFTEFYNDLYDYIRGEEARLMPYGTAVEAWAVLFQNEPRIIPWIKWYSDIYRREVTRDVWRQIGIFLSAVPNIEAYNVEDRWSCAIDSYVEWCKVSG	not soluble
MTVANWQVRDLTLILRTGEMQSRLEQARTDFGALLPETVYFQPSAIRLGEFDDEYILTRQELVYVYLREDIARQCALRRHLPSNSSNSGIMATAIPPWLMDARRLNRVMQERCDQGGLVHYYQGPHTNQFFLAIMPSNCFVRFGTDVINNENYGFYARGGNYTEEGEDDDDEMDDEDETGGAETRDSQTGNLINYPIIALGSCHLSALEHHHHHH	not soluble
MDINKMTYAVQSALQQAVELSQQHKLQNIEIEAILSAALNESESLYKSILERANIEVDQLNKAYEDKLNTYASVEGDNIQYGQYISQQANQLITKAESYMKEYEDEYISMEHILRSAMDIDQTTKHYINNKVEVIKEIIKKVRGGNHVTSQNPEVNYEALAKYGRDLVEEVRQGKMDPVIGRDEEIRNTIRILSRKTKNNPVLIGEPGVGKTAIVEGLAQRIVKKDVPESLLDKTVFELDLSALVAGAKYRGEFEERLKAVLKEVKESDGRIILFIDEIHMLVGAGKTDGAMDAGNMLKPMLARGELHCIGATTLNEYREYIEKDSALERRFQKVAVSEPDVEDTISILRGLKERYEVYHGVRIQDRALVAAAELSDRYITDRFLPDKAIDLVDQACATIRTEMGSNPTELDQVNRRVMQLEIEESALKNESDNASKQRLQELQEELANEKEKQAALQSRVESEKEKIANLQEKRAQLDESRQALEDAQTNNNLEKAAELQYGTIPQLEKELRELEDNFQDEQGEDTDRMIREVVTDEEIGDIVSQWTGIPVSKLVETEREKLLHLSDILHKRVVGQDKAVDLVSDAVVRARAGIKDPNRPIGSFLFLGPTGVGKTELAKSLAASLFDSEKHMIRIDMSEYMEKHAVSRLIGAPPGYIGHDEGGQLTEAVRRNPYSVILLDEVEKAHTDVFNVLLQILDEGRLTDSKGRSVDFKNTIIIMTSNIGSQVLLENVKETGEITESTEKAVMTSLNAYFKPEILNRMDDIVLFKPLSIDDMSMIVDKILTQLNIRLLEQRISIEVSDDAKAWLGQEAYEPQYGARPLKRFVQRQIETPLARMMIKEGFPEGTTIKVNLNSDNNLTFNVEKIHE	not soluble
GHMYAIAEDTLPARVLKELLLYRRRYPEHRQSASEADEIRRIEQVQLPRIAAFIEAGEPIEFVLPAFPAKSPNPGKVLDSRPDMAERLSLSFLNHLCQRIQLFYAPGAKITVCSDGRVFGDLVRIGDAHISAYQDALRLMIEEIGATHIGVFNLEDVRAFEAQRDNHEQLRQLLIGGYAEPLESIRETLLASEEGLLLYRAITRFLYEDGLTPDYQGSKTALQRDAKERAYGVIQRSWAWGALLADQFPRAIRLSIHPQPADSLKFGIHMMPTRDDWLTPWHGVAVNTEDRFVLMKRSEVLELGGELVQINGQPSHYRLPARAARRAAVA	soluble
AEQKTLHIYNWSDYIAPDTVANFEKETGIKVVYDVFDSNEVLEGKLMAGSTGFDLVVPSASFLERQLTAGVFQPLDKSKLPEWKNLDPELLKLVAKHDPDNKFAMPYMWATTGIGYNVDKVKAVLGENAPVDSWDLILKPENLEKLKSCGVSFLDAPEEVFATVLNYLGKDPNSTKADDYTGPATDLLLKLRPNIRYFHSSQYINDLANGDICVAIGWAGDVWQASNRAKEAKNGVNVSFSIPKEGAMAFFDVFAMPADAKNKDEAYQFLNYLLRPDVVAHISDHVFYANANKAATPLVSAEVRENPGIYPPADVRAKLFTLKVQDPKIDRVRTRAWTKVKSGK	soluble
MSLNTREKYLSNVNRLVIKVGSSTLTHPSGLLNFYKIEHIVRQIADLHNQGIKVILVSSGAIGAGIGKLRLKERPKTIPEKQAAAAVGQGVLMHTYEKLFAEYGQIVGQILITREDLSSKKRVVNVQNTFSALLDHGIIPIVNENDATVVEEIKFGDNDTLSARVASLIKADLLILLSDIDGLYDSNPAVNKNAVLIDTVNEVNEEVKASAGGAGSKLGTGGMATKIRAAEIATENGISMVIANGEKQEAIRNILNFENEGTLFIPKNKEGHHHHHH	soluble
MRAFSFRPFFLQALVVMPEYVNWLRHASPYINAHRDCTFVVMLPGDGVAHPNFGNIVHDLVLLHSLGVRLVLVHGSRPQIESRLAQRGITPRYHRDMRITDTETLECVIDAVGQLRISIEARLSMDMAASPMQGSRLRVTSGNVVTARPIGVLEGIDYQHTGEVRRVDRKGINRLLDERHIVLLSPLGYSPTGEIFNLACEDVATRAAIDLAADKLLLFGAETGLLDEQGRLVRELRPQQVPAHLQRLGGNYQAELLDAAAEACRGGVARSHIVSYAEDGALLTELFTRDGGGTLVAQEQFELVREAAIEDVGGLMDLITPLEEQGILVRRSREVLEREITQFSVVEREGLIIACAALYPIADSESGELACLAVNPEYRHGGRGDELLERIENRARALGIKTLFVLTTRTAHWFRERGFEPSSVDRLPSARASLYNFQRNSKIFEKAI	not soluble
MSNTKTASTGFAELLKDRREQVKMDHAALASLLGETPETVAAWENGEGGELTLTQLGRIAHVLGTSIGALTPPAGNDLDDGVIIQMPDERPILKGVRDNVDYYVYNCLVRTKRAPSLVPLVVDVLTDNPDDAKFNSGHAGNEFLFVLEGEIHMKWGDKENPKEALLPTGASMFVEEHVPHAFTAAKGTGSAKLIAVNF	soluble
MSLGRIGLRKLLQRIGIVAESMTPLATDPVEVTQLLDARWYDERLRALADELGRDPDSVRAEAAGYLREMAASLDERAVQAWRGFSRWLMRAYDVLVDEDQITQLRKLDRKATLAFAFSHRSYLDGMLLPEAILANRLSPALTFGGANLNFFPMGAWAKRTGAIFIRRQTKDIPVYRFVLRAYAAQLVQNHVNLTWSIEGGRTRTGKLRPPVFGILRYITDAVDEIDGPEVYLVPTSIVYDQLHEVEAMTTEAYGAVKRPEDLRFLVRLARQQGERLGRAYLDFGEPLPLRKRLQEMRADKSGTGSEIERIALDVEHRINRATPVTPTAVVSLALLGADRSLSISEVLATVRPLASYIAARNWAVAGAADLTNRSTIRWTLHQMVASGVVSVYDAGTEAVWGIGEDQHLVAAFYRNTAIHILVDRAVAELALLAAAETTTNGSVSPATVRDEALSLRDLLKFEFLFSGRAQFEKDLANEVLLIGSVVDTSKPAAAADVWRLLESADVLLAHLVLRPFLDAYHIVADRLAAHEDDSFDEEGFLAECLQVGKQWELQRNIASAESRSMELFKTALRLARHRELVDGADATDIAKRRQQFADEIATATRRVNTIAELARRQEGHHHHHH	soluble
MKVLAIDTSNYVMGVSLIEEGNVIGEIITNLTKNHSVRLMPAVEQLLKECGVKPKELTKIVVAAGPGSYTGVRIGVTAAKTLAWSLQIPIVGVSSLEVVAANGANFNGLISPLFDGRRGQIYTGLYTYEGEDLTSIEEDRIILIVDWLQMLKDKGKPVLFIGNDVKLHKETIIEHLGDQAVFAPVTKNNPRPSELAFLGLQKEEQDVHSFVPSYLRLAEAETKWLESQNK	not soluble
MDRRTFLKSASMKGTAIVTASAVGTEMLHAAESIGASDVASGKRNAPKAKRLPEDLQELVKDSSLLRKPDNLTVACYTFPNYHASALHDKIYGPGWTEYNLVRSARPWFQGHAQPRGPLLGEMDESKPGTWEKYNELCKQSGIDVLIWDWYWYNNEPCLHEALENGFLRASNRNDVKFACMWTNHPWYVLYPTLLPNGYKAYPPSFAPADGSLKECWQSLSYIISRYCHLENYWRIDDKPVVCIWDPNRLEKNIGVDGVKQLFAELTEFARKLGHKGLHFHSSGFYSPNSKEVGYNTAGSYNPFTWVADNYQPKNIELPDYGVAAADVAFKLWPKHHDDFAIPYLPSLSPGWDSTPRYIPPVSRPDQPNRDAWPNCVILDNENPASFKALVQSAFAYLNKHKDVPPILTIACFNEWTEGHYLLPDNRFGYGMLDALAEAVGKSDNHQIHGFFLEHHHHHH	not soluble
ASNIYRLQQAAEAAVKTGRKIAVFGRSMEKAIVNGIELGYIKVPKGTFIEPSELKNLHASEVLIMCTGSQGESMAALARIANGTHRQVTLQPGDTVIFSSSPIPGNTTSVNKLINTIQEAGVDVIHGKVNNIHTSGHGGQQEQKLMLSLIKPKYFMPVHGEYRMQKVHAGLAMDIGIPKENIFIMENGDVLALTSDSARIAGHFNAQDIYVDGNGIGDIGAAVLRDRRDLSEDGVVLAVATVDFNTQMILAGPDILSRGFIYMRESGDLIRESQRVLFNAIRIALKNKDASIQSVNGAIVNALRPFLYEKTEREPIIIPMVL	not soluble
MGSDKIHHHHHHMAYPPTGGDRKTNLTTILRKSSKNLMSKKSDSQFQNLFTSAKSSNWDERLGQIAYRFNREYQRETFELPTEVQAMPIFREWIGGSFSGRIASPFWEIAQPQKNQHCLDIGCGISFLIYPWRDWQAFFHGQEISNVARDTLNSRGPQLNSKLFKGVELGAAHQLNYSPEQFDLAIATGFSCYFPLEYWNAVLAEVKRVLKPGGHFVFDILNPEQPLAEDWAVLETYLGAEVFLEPVAGWEKAIKAAGAKIVTQKSGELFQMYKVRF	not soluble
MGSDKIHHHHHHMSGGDAMAKAVKQPAPDAEQIVLAIDIGGSHVKILTSAGGAERRDDSGPDLTPQQMIDKVKKLAEGLSYDVISMGYPGPVRHNKPVLDPKNLGKGWAGFDFAAQFGKPVKVVNDALMQAIGSYEGGRMLFLGLGTGLGAAMVFDNVGQPMELAHLPYRKGRSFEDYVGERGLEKRGKKKWRKYVFDVVTRLRAALQPDYVVIGGGNVDKLDALPAEARRGDNTRAFEGGFRLWRDKALIV	not soluble
QSFRAIQLSDLHIGGLIEEHYMEALGERINALKPDMIFLTGDITDASCEQIRTPLEKLKALQAPLGIYFVSGNHEFFHGIQKTMDFLREMGIVVLENDSRTIEGLVNIAGVHDLFGRRIGFLEPDLEQALYGIDPSLPTILLAHQPKFAKEALGYPVDLILSGHTHGGQIAPFGLLVR	not soluble
MAHHHHHHMPFNREILAAISFESGPLSSAEIAARRTPTEEPPKNLEVKSCDKRDEPRQNEATINLIRCMKWALGQSITSISHPAKQRPLNPKRDFSIKTKINLDVGVEKPKPGFCCSTAAATGVREQRNHHAPFYDAHGDSEEASHLDESDVESHDEVPNVPLAFVDYSPMCYRHIREFFNIDHRAYRDVLLRSRWHSTPTPGKSAAQLFFCGRDWVIKTMTHEESKFLRRILHRYYFFVLDHPYTLLPHFVGHHRLEINGEKMYIIIMQNVFVTGNTIHEKYDLKGSTVGRFATEAEKKKQTCTQKDLDINRPLHVGATRRNLLIEQMKMDCGFLNQCNIMDYSFLVGIHVLPMYEAHRPAPSTGSREYLGGAAALATSALEPSYLLGMGETMQPMALNGHPTAAADSAPTDGRCFKADQGGMMSADHPGGRREIYYIGIIDILQEYNSRKSMETLVFGMLKDRQKISAVPPKEYAARFVSFVSSIIV	not soluble
MTSITAIFFDLDGTLVDSSIGIHNAFTYTFKELGVPSPDAKTIRGFMGPPLESSFATCLSKDQISEAVQIYRSYYKAKGIYEAQLFPQIIDLLEELSSSYPLYITTTKDTSTAQDMAKNLEIHHFFDGIYGSSPEAPHKADVIHQALQTHQLAPEQAIIIGDTKFDMLGARETGIQKLAITWGFGEQADLLNYQPDYIAHKPLEVLAYFQ	soluble
